Holding throughout (assay): purified protein
Holding throughout (type): biochemical, Aspergillus oryzae

Substrate in series [1]: O=[N+]([O-])c1ccc(O[C@H]2O[C@H](CO)[C@@H](O[C@H]3O[C@H](CO)[C@@H](O[C@H]4O[C@H](CO)[C@@H](O[C@H]5O[C@H](CO)[C@@H](O[C@H]6O[C@H](CO)[C@@H](O[C@H]7O[C@H](CO)[C@@H](O)[C@H](O)[C@H]7O)[C@H](O)[C@H]6O)[C@H](O)[C@H]5O)[C@H](O)[C@H]4O)[C@H](O)[C@H]3O)[C@H](O)[C@H]2O)cc1
To be noted: 50 mM sodium acetate pH 5.5, 40°C, apparent value, hydrolysis plus transglycosylation, 1.6–50 mM substrate.

Substrate in series [2]: O=[N+]([O-])c1ccc(O[C@H]2O[C@H](CO)[C@@H](O[C@H]3O[C@H](CO)[C@@H](O[C@H]4O[C@H](CO)[C@@H](O[C@H]5O[C@H](CO)[C@@H](O[C@H]6O[C@H](CO)[C@@H](O)[C@H](O)[C@H]6O)[C@H](O)[C@H]5O)[C@H](O)[C@H]4O)[C@H](O)[C@H]3O)[C@H](O)[C@H]2O)cc1
The conditions noted are these: 50 mM sodium acetate pH 5.5, 40°C, apparent value, hydrolysis plus transglycosylation, 1.6–100 mM substrate.

Substrate in series [3]: O=[N+]([O-])c1ccc(O[C@H]2O[C@H](CO)[C@@H](O[C@H]3O[C@H](CO)[C@@H](O[C@H]4O[C@H](CO)[C@@H](O[C@H]5O[C@H](CO)[C@@H](O[C@H]6O[C@H](CO)[C@@H](O[C@H]7O[C@H](CO)[C@@H](O[C@H]8O[C@H](CO)[C@@H](O[C@H]9O[C@H](CO)[C@@H](O)[C@H](O)[C@H]9O)[C@H](O)[C@H]8O)[C@H](O)[C@H]7O)[C@H](O)[C@H]6O)[C@H](O)[C@H]5O)[C@H](O)[C@H]4O)[C@H](O)[C@H]3O)[C@H](O)[C@H]2O)cc1
To be noted: 50 mM sodium acetate pH 5.5, 40°C, apparent value, hydrolysis plus transglycosylation, 1.6–25 mM substrate.

Substrate in series [4]: O=[N+]([O-])c1ccc(O[C@H]2O[C@H](CO)[C@@H](O[C@H]3O[C@H](CO)[C@@H](O[C@H]4O[C@H](CO)[C@@H](O[C@H]5O[C@H](CO)[C@@H](O[C@H]6O[C@H](CO)[C@@H](O[C@H]7O[C@H](CO)[C@@H](O[C@H]8O[C@H](CO)[C@@H](O)[C@H](O)[C@H]8O)[C@H](O)[C@H]7O)[C@H](O)[C@H]6O)[C@H](O)[C@H]5O)[C@H](O)[C@H]4O)[C@H](O)[C@H]3O)[C@H](O)[C@H]2O)cc1
To be noted: 50 mM sodium acetate pH 5.5, 40°C, apparent value, hydrolysis plus transglycosylation, 1.6–50 mM substrate.

From publication PMC10512346, “Cleavage of α-1,4-glycosidic linkages by the glycosylphosphatidylinositol-anchored α-amylase AgtA decreases the molecular weight of cell wall α-1,3-glucan in Aspergillus oryzae” (Frontiers in Fungal Biology, 2023) come the findings set out here.

B1: rAoAgtA (Aspergillus oryzae RIB40) (protein)
chain: ATTAEWKSRSVYQTMTDRFARTDGSTTAPCNTTQGLYCGGTWRGTIDKLDYIQGMGFDAVMISPIVENIEGRVSYGEAYHGYWPLDLYSLNSHFGTHQDLLDLSEALHSRGMYLMMDTVINNMAYMTNGKDPAKNIDYSVFTPFNDSSYFHPYCKITDWNNYTNAQLCQTGDDKVALPDLFTEHEDVQQILEKWAKEIISTYSIDGLRIDAAKHVNPGFLKNFGDAIGAFMTGEVLQQEVDTICKYQNNYIGSVPNYPIYYSVLKAFTLGNTTDLANQVEIMKNSCDDVTALASFSENHDVARFASMTDDMALAKNVLTFTILYDGVPMIYQGQEQHLDGPGTPDNREAIWLTKYNTDAELYKLIAKLNTIRKHAYKLDPNYVSLQTYPIFRGGSELGFRKGVEGRQVVMLLSTQGSNSSAYNLTLPVSFNGGVQVMDVLNCVNYTVNPQSELIVPMDKGEPRVFFPTSLMPGSGLCGYTTANVSFVELKTKGAA
notes: residues 24-518 of 549 (signal peptide 1-23 and C-terminal GPI-anchor region removed), C-terminal PGGGS linker and His6 tag; secreted from Pichia pastoris SMD1168H with alpha-factor signal
For orientation: Km means the substrate concentration at which the rate is half of its maximum. Usually Vmax stands for the top rate of the reaction or transport when substrate is in excess. The term kcat denotes the number of substrate molecules converted per active site and unit of time at saturation. A word on the kcat/Km: it is the turnover number divided by the Michaelis constant. Consider B1, for which, in series [1], the Km was determined as 45.6 mM, the Vmax amounted to 710 µM/min, the kcat was 64.6 s⁻¹ and the kcat/Km is 1420 M⁻¹ s⁻¹. Besides, in series [2], the Km is on record as 61.8 mM, the Vmax is 659 µM/min, the kcat was found to be 60 s⁻¹ and the kcat/Km turned out to be 970 M⁻¹ s⁻¹. In series [3], the Michaelis-Menten constant (Km) was 25.1 mM, the Vmax turned out to be 344 µM/min, the kcat worked out at 31.3 s⁻¹ and the kcat/Km came out at 1250 M⁻¹ s⁻¹. In series [4], the Km is on record as 28.9 mM, the Vmax amounted to 402 µM/min, the kcat came to 36.7 s⁻¹ and the kcat/Km is 1270 M⁻¹ s⁻¹.
